Data published in article PMC9616950, “A toxin-deformation dependent inhibition mechanism in the T7SS toxin-antitoxin system of Gram-positive bacteria” (Nature Communications, 2022).

B3: EsaDc H528A (EsaD residues 450-614, crystallised with EsaG) (domain or fragment)
chain: SPNYTKVEFGEHYARLRPKKLKANIEYTTPTGHIYRTDHKGRIKEVYVDNLSLKDGDRNSHAQRTVGGEDRLPDDDGGALIARMFGGSKDIDNLVAQSKFINRPFKEKGHWYNLEKEWQEFLNSGKEVKNIKMEVKYSGNSQRPTIFKVEYEINGERNIRRILNK
notes: source: E. coli BL21(DE3), purified (nickel column, ion exchange, Superdex 200); not shown: His6-SUMO, N-terminal, cleaved
B4: EsaG (natural protein)
chain: MTFEEKLSKIYNEIANEISSMIPVEWEKVYTMAYIDDGGGEVFFNYTKPGSDDLNYYTNIPKEYNISVQVFDDLWMDLYDLFEELRDLFKEEDLEPWTSCEFDFTREGELKVSFDYIDWINSEFGQIGRQNYYKYRKFGILPETEYEINKVKEIEQYIKELEE
notes: also called antitoxin EsaG; full-length EsaG; source: E. coli BL21(DE3), purified (nickel column, ion exchange, Superdex 200); not shown: His6-SUMO, N-terminal, cleaved

Key:
[1] = biological target: Avi-tagged EsaG, biotinylated (S. aureus) (UniProt Q2G178); test: BLI; biotinylated Avi-tagged EsaG immobilised on streptavidin biosensors, EsaDc in solution at different concentrations; 300 mM NaCl, 30 mM NaH2PO4, 27 mM KCl, pH 7.2
[2] = biological target: B4; test: pull-down; His-SUMO-tagged protein on Ni-NTA beads with untagged protein (0.16 mM : 0.2 mM); 25 mM Tris-HCl pH 8.0, 1 M NaCl, 24 °C, 30 min; Coomassie-stained SDS-PAGE; settings: both partners purified
[3] = biological target: B4; test: SEC; gel filtration of purified proteins and their mixtures; column and buffer not told for these runs; settings: both partners purified
[4] = biological target: the molecule itself; test: crystal structure; EsaDc-EsaG complex, 2.60 Å; hanging drop, 0.1 M Tris pH 8.5, 12% PEG6000, 0.15 M NaCl, 10% ethylene glycol, 0.5% Tacsimate pH 7.0, 1.0% PEG5000MME
[5] = biological target: B3; test: as above; settings: both partners purified

Molecule “EsaDc Y484A (from UniProt Q2G179 450-614) (domain or fragment)” has a Kd [1] of 1670 nM.

“EsaDc (EsaD residues 450-614, as used in the solution assays) (from UniProt Q2G179 450-614) (domain or fragment)” gave a Kd [1] of 460 nM.

“EsaDc N562F (from UniProt Q2G179 450-614) (domain or fragment)” showed a Kd [1] of 860 nM.

B1: His-EsaDc-NFL (His-SUMO-tagged EsaD residues 450-503) (domain or fragment)
chain: SPNYTKVEFGEHYARLRPKKLKANIEYTTPTGHIYRTDHKGRIKEVYVDNLSLK
notes: also called His-tagged NFL; source: E. coli, purified; not shown: His-SUMO, N-terminal, kept
B1: binds [2].

B2: NFL (EsaD residues 450-503) (domain or fragment)
chain: SPNYTKVEFGEHYARLRPKKLKANIEYTTPTGHIYRTDHKGRIKEVYVDNLSLK
notes: 15N-labelled in one of the HSQC samples; The methods call the fragment NTL; also called EsaDc-NFL; NTL; source: E. coli BL21(DE3), purified (nickel column, ion exchange, Superdex 200); not shown: His6-SUMO, N-terminal, cleaved
B2: binds [3].

B3: binds [4].

B4: binds [5].
